# Assay results reported in the DeepSol protein solubility set.
# Test: soluble on expression in E. coli; label from the status in PepcDB or PDB records
row,Sequence,soluble on expression in E. coli
1,MGSSHHHHHHGGTGENLYFQGGSGAFRGSSARLAATPGVGIAPETTPVKYVPEMLNIQNAKWWNGRGKPVYRSTYNEKSWLEKARWGAFTKGSRPVMRQRYSAAALKEALEMVPEGFETCDVPRPPQRIRAQSEGVVGRWYTNYWTLHSVRYQCQLAGVEWQFGERQRPRTNYDEPHMYTDFEETKAIRDYRSRWINVNRSLVGMSRRMKESEEEARYLHFKKVQDTFWSNRKVLVNRIKSMHNQGTLQSAKDLPIKTINIKAFLAE,not soluble
2,MGSSHHHHHHGGTGENLYFQGGSGAGIDYSKWDKLCDSGTSSGTEYEGDRDDKGHDDSSRAPQVTRLEYPSRVTLGPNGVQLEQVPPKASASPFPGTCAPPEETDNGSVAVARCPIKEESFHAEYDTGASNASSHATGNTAGRRDDDQERMGATDDDEDLLYESLARNGGREGSHHWWTQTEDTVTVSFLVPWETKGKSVTEFRLYEARSTTALESELLQAHLEITILVRPACLTSPSSGPSASAAPLRIHQVFRYPVKLSEDLIDGCWQLHFMPRRHLRLLVVQLFKEPVGLGMTLWWDRCFVTDTTSVIADTQTIPDRKRRMEATPGSKEKAGQFRKVWADAHEEFRRRAQERKRKIIE,not soluble
3,MGSSHHHHHHGKTIFVIVPTNEEQVAFLEALAKQDELNFDWQNPPTEPGQPVVILIPSDMVEWFLEMLKAKGIPFTVYVEEGGSENLYFQGGGGGGRSSRHLCGLPTVRTVAATGWRYHRHGAPEKVLQYERYRVPFDRTSGQVVVKMLAAPVHRHDKNLIEGHGGPIAVPKACLPHVAGVEGVGVVEEVGSNAKLALKEGDMVWINNPSVGSWATHIVTDAENLDVVPCRADVDIEYLASLSLFHTAYHLTHDFVNIQPNDVVLQTGASSSIAQICQGYLRAKGAKLFQTMQLGRTEHAHLLAFFKLRGAFAVVPYNYARTNYMRRLLSDVPPPKLLLNHTCGGYASNLVNLLGDNGVCVTYGNTSHQPMQISNMDAIARGVQFKGFFLPSWIRRHTREARMRVHQNVVESMTITQGHGIFRAQRFKMDGDSAFAFSNAWDAPLASRKAVLRIVGEYGEWRRPRSDQAGWNIGRAVWEDMLQQMWESAGTTENPQSMKYYTPFDDIHSSFYDAKQSKELGHRDVFFRRPNAPRHNAAEQQQ,not soluble
4,MGSSHHHHHHGKTIFVIVPTNEEQVAFLEALAKQDELNFDWQNPPTEPGQPVVILIPSDMVEWFLEMLKAKGIPFTVYVEEGGSENLYFQGGGGGGRTGFNTAYSRCTYLVMMGEYKQLLEPGTFPSNDRLPPHLRLDKLSYLDLRDTEIALPPVIDVSLSNRDQVRQLEGQLPSTERSDLHVHFGPIKSQTIIMTPSSNERYVRRRLGLSEKDRKNLEAESQQAFAQARS,soluble
5,MGSSHHHHHHGKTIFVIVPTNEEQVAFLEALAKQDELNFDWQNPPTEPGQPVVILIPSDMVEWFLEMLKAKGIPFTVYVEEGGSENLYFQGGGGGGSECNISADERMDVPSEDYDVSIMIKAIHEVQDVLTSRQFATFSEVDTEIGKTLKRYEAFGDGFERFHVNLTKDALQSNDLQKSLKDMDKRCQDRLRDCASSQKDQINDILPFIRNTSSILVHGSGNLLALTIACSIQEHEGVRFYICEGRPARKGYPHGSGEQLLEKVLATPEGMRLKDKLHKYCTIVPDSGVSSVMNSVDFVIMGAYCVTEHGGLVHSTGSLQIAIVAAFRNVPCYVLCETFKFAHIFPLSTDDLKQPENGAGEVVPLVEFVPPSMITLIFSEQGIMPPSAVADEMFRFHTAPSAPGKRR,not soluble
6,MGSSHHHHHHGKTIFVIVPTNEEQVAFLEALAKQDELNFDWQNPPTEPGQPVVILIPSDMVEWFLEMLKAKGIPFTVYVEEGGSENLYFQGGGGGGVNPVVEFVDVGCAFGGMLFSLAAVFPATCMMGLEIRPKVVSFAQEKALALRQENAASLTQHYRNVWFEQMNVMKFGSNCFTKGQLSRLFFCYPDPHWKRKNIRRRIISPGLVQEYAYWLRHGGLVYTVSDVAELEEWMVQCLDDSPLFRRLAEAELCTPEHKQVLEIVTGASEDAQRTARKGLQKHFAVHMRI,not soluble
7,MGSSHHHHHHSSGEDRYKEKLLQKAKAEGVESIEELKKRLADQIEEKKKELNKIDPLRELEQHLNAGSRIHTNKEHKTTKMSNKSNEKSGNVLPKDKPYKTLDDYLKLDKIKDLSKQEVEFLWRAKWSNRDDSLVAVVPYVKTFQGMYKYAVKNPLFVLPLPRENAADGNKADKDSVPVELQYVQWQFAGPNTVHCLITSLAEYKLHQDFAKPHTTIQFHLDLANDKDMVLMNGQVESDSNVSLQDAQLLLLNVQRFYGAMGSETSIAKERIQLLEDFNKGSQNFDINKLIQLAQSMEN,soluble
8,MGSSHHHHHHSSGLVPRGSHMARQNLKSTDRAVQQMLDKAKREGIQTVWDRYEAMKPQCGFGETGLCCRHCLQGPCRINPFGDEPKVGICGATAEVIVARGLDRSIAAGAAGHSGHAKHLAHTLKKAVQGKAASYMIKDRTKLHSIAKRLGIPTEGQKDEDIALEVAKAALADFHEKDTPVLWVTTVLPPSRVKVLSAHGLIPAGIDHEIAEIMHRTSMGCDADAQNLLLGGLRCSLADLAGCYMGTDLADILFGTPAPVVTESNLGVLKADAVNVAVHGHNPVLSDIIVSVSKEMENEARAAGATGINVVGICCTGNEVLMRHGIPACTHSVSQEMAMITGALDAMILDYQCIQPSVATIAECTGTTVITTMEMSKITGATHVNFAEEAAVENAKQILRLAIDTFKRRKGKPVEIPNIKTKVVAGFSTEAIINALSKLNANDPLKPLIDNVVNGNIRGVCLFAGCNNVKVPQDQNFTTIARKLLKQNVLVVATGCGAGALMRHGFMDPANVDELCGDGLKAVLTAIGEANGLGGPLPPVLHMGSCVDNSRAVALVAALANRLGVDLDRLPVVASAAEAMHEKAVAIGTWAVTIGLPTHIGVLPPITGSLPVTQILTSSVKDITGGYFIVELDPETAADKLLAAINERRAGLGLPW,soluble
9,MGSSHHHHHHSSGLVPRGSHMASMKQIKKLLVANRGEIAIRIFRAAAELDISTVAIYSNEDKSSLHRYKADESYLVGSDLGPAESYLNIERIIDVAKQANVDAIHPGYGFLSENEQFARRCAEEGIKFIGPHLEHLDMFGDKVKARTTAIKADLPVIPGTDGPIKSYELAKEFAEEAGFPLMIKATSGGGGKGMRIVREESELEDAFHRAKSEAEKSFGNSEVYIERYIDNPKHIEVQVIGDEHGNIVHLFERDCSVQRRHQKVVEVAPSVGLSPTLRQRICDAAIQLMENIKYVNAGTVEFLVSGDEFFFIEVNPRVQVEHTITEMVTGIDIVKTQILVAAGADLFGEEINMPQQKDITTLGYAIQCRITTEDPLNDFMPDTGTIIAYRSSGGFGVRLDAGDGFQGAEISPYYDSLLVKLSTHAISFKQAEEKMVRSLREMRIRGVKTNIPFLINVMKNKKFTSGDYTTKFIEETPELFDIQPSLDRGTKTLEYIGNVTINGFPNVEKRPKPDYELASIPTVSSSKIASFSGTKQLLDEVGPKGVAEWVKKQDDVLLTDTTFRDAHQSLLATRVRTKDMINIASKTADVFKDGFSLEMWGGATFDVAYNFLKENPWERLERLRKAIPNVLFQMLLRASNAVGYKNYPDNVIHKFVQESAKAGIDVFRIFDSLNWVDQMKVANEAVQEAGKISEGTICYTGDILNPERSNIYTLEYYVKLAKELEREGFHILAIKDMAGLLKPKAAYELIGELKSAVDLPIHLHTHDTSGNGLLTYKQAIDAGVDIIDTAVASMSGLTSQPSANSLYYALNGFPRHLRTDIEGMESLSHYWSTVRTYYSDFESDIKSPNTEIYQHEMPGGQYSNLSQQAKSLGLGERFDEVKDMYRRVNFLFGDIVKVTPSSKVVGDMALYMVQNDLDEQSVITDGYKLDFPESVVSFFKGEIGQPVNGFNKDLQAVILKGQEALTARPGEYLEPVDFEKVRELLEEEQQGPVTEQDIISYVLYPKVYEQYIQTRNQYGNLSLLDTPTFFFGMRNGETVEIEIDKGKRLIIKLETISEPDENGNRTIYYAMNGQARRIYIKDENVHTNANVKPKADKSNPSHIGAQMPGSVTEVKVSVGETVKANQPLLITEAMKMETTIQAPFDGVIKQVTVNNGDTIATGDLLIEIEKATD,soluble
10,MGSSHHHHHHSSGLVPRGSHMKVYYECAPCFLRQAREAIDLATDDEELKLRVMENILELLSERFRRGQVSNELGTRMHRLIKDMTGSEDPYLDEKRRCNEIALRFLPTVRDYLECHSDLESHVKVAITGNIIDFGALGLDFDHDRGIQESLRAPLTINHVPLLEDRLREASEVLYLLDNTGEILFDRPLIEKLAGYDVSVKVAVKGEPILNDACMEDALEAGLDEVAEIVTTGTDSVGIVYSDLSDEFRDMLDGTELVIAKGMGNYEGLTEISDGSRDIFCLLNAKCSAIARDLGVARGDNVAVKI,soluble
